Test: soluble on expression in E. coli; label from the status in PepcDB or PDB records

Sequence | soluble on expression in E. coli
MKHLTASEVRSTFINFFREKKEHTYVHSSSVIPHDDPTLLFANAGMNQFKPLFLGIADPNSDLAKLKRAVNTQKCIRAGGKHNDLDDVGKDVYHHTYFEMLGNWSFGDYFKKEIITWAWELLTTVYGIPAERLYVSVFGGDEANGVPADSEARDIWRSVGVPDERILNFGMKDNFWEMGDVGPCGPCSEIHYDRIGNRDASHLVNADDPMVVEIWNLVFIQFNREEGGVLKPLPAKHIDCGLGLERLIAVMQDKTSNYDTDIFQPIFEAIHKGSGVRAYTGFIGDEDKDGVDMAYRVVADHVRTLTIALSDGGRPDNSGRGYVLRRILRRGVRYASEKLNAQPGFFASLVPVVISILGETFPELSRDPVTVMDIINDEEKQFLKTLSRGRVLFQRAVQSLPEGTMTFPGDVSWRLYDTYGFPADLTQLMAEEKGLSVDNTAFEEARRKAIETSSAGTGKFRDTLDLDVHALAELQQKGVPTTDDSPKYAYTFTGEGSDAVYKFEPCVGKILAIRRDGKFVDQLAAGEEGAILLDRTNFYAEQGGQIYDVGVLTKVNDESNEFNVSNCQVRGGYIVLVGSAEGSFSVGDQVNERFDEDRKQLIMKNHTGTHVLNYALRKVLADSDQKGSLVAPDRMRFDFTNKAGMTVQQVKKAEEYAQQLIDTKGQVYAKNSPLGEAKKVKGLRAMFDETYPDPVRVVAVGTPVEQLLQNPDAEEGQNTTVEFCGGTHLQNVSHIGRIVIASEEAIAKGIRRIVALTGPEAERAIARADRLTARLEEESKHADKKDELLANKDKFKALQKKIQEIVDEANGAQLPYWRKDSIREKAKAIQKTLDGYTKAQQAAVAEKVLGEAKELAAVAEQPTVLVHVFAANANSKAIDNALKLLKDTKAVMAFSVNEDSGKVLCLAKVDKSLVSNGLKANEWVNEVCTVLGGKGGGKDANAQLTGENVDKLDAAVELAQKFALAAIN | soluble
MPGTTDQIDVNVEVKEKPTGAVMFGAGYSNMEGLILSGSVAQDNIFGTGKFVNLMVNTGSVNKTYSLSYTDPYFTKDGVTAGLDLYKRVLNTRTLSSVMNFNTDTLGAGLRFGIPINENDSIMGGLGAEQTTIDLGPDSPQRNIDFVNKFGRTTINIPATLSWRRDGRDSAIWTTSGTTQRVFAEVGLPGGDLTYYKLSYDLRWYFPITEIFTLMLNGELGYGDGYSGKELPFFKNFFAGGNTSVRGYNISSLGPRDATNRTLGGNKRAVGNIEVLFPMPGMRNDRTVRLSAFLDGGTVWGPGGVRPDQEGLRYSAGIAVTWISPMGPLKISVAQPLNSQPGDNIQRFQFQFGQQFLEHHHHHH | soluble
MEKLGLEHVCGDLNTEVEHGFTCDLLSEVLGKAQPSTLWITVQSHVNIIAVATVVGIKGIVLCDGHEYEKDTVKKAEENGVVLLKSQENSFIVSGKVYELGLRLEHHHHHH | not soluble
MKVRAIFLNFSVQLTPPSRLVILRNQSVFFSALLLNCPPLLPLPTEASPCYAVSESQPYARKQSCIITAARSAPSVDHIQVVLCRPHNSLLVCPSSHARSSTAVMATEDELRELLPKMRFNKEFKKKQKYQYKKRVEAREKEREIVTGKRRPASEQIQSASDGAKTKTTAAKKSGGAGRAGTKRKPKTRVPKLKVANVETGKETLTKKKARELVQENRKKKACAKKEPKLTAKSTRAGAATAAVVSSETLEGKQSKARVTKDELPATAAQAASSVEPTQTLTQAERDRELLARAIRGDDLLGSDAAAGVADDAAFIRQDPSLYPDHAFLDDYAEKKHAEAVSADELLQNAHHFFKKLSKQERALNKVAKEHINHLRAVNRRGGDKQGFRYVVPKNVKQVVRELLSAQKARDGDEDPETLVDTEQLVSTFGGDGVAETSEKPVRRSRRRRLRTYSDFYQFQVSRRWTRNAENFLKRSRSNKLLFEAKKHQRTIKHF | not soluble
MSLVHNPDNTKLSDATFVIFDIETTGLHGRYDDVIEFSARKIKNNSEIDHQQFFLKIDKPIPKTITEITKITDEMLEGGIDQQQGLEKIRNYLDDCVMVAHNGINFDLPFLQTQFEKYNIKPLTNPLIDTLCLSWALNPLFSSHTLSNICSKLKLEFDDERLHRAEYDTEALKKVFFYFKKQLKEMGINTLTEIDQNLNKKCQIDLMKRVFTNTAIVYVKNQRGFQNLYEMLSIALTDHNANRPLVLASSLAKFRKSFLLTENPVQGDIFKAALTKPINELEKAIEKVDFVLISQPNAYLGYTLREGLKKELINDAIKLVIKTATKLKKLVAVASDAYFIHPWENEYYKAIVCAKGLGGKWHRHFNNKEKEQTVPEVFLHTTDEMLKRMSFLGEDIAYKLVVENTNKIVKLLDLNELVPTKNKLYPPVMQDSNQKLIDKTWKQAEKRYGKNLPKLIKERIEKEEGHHHHHH | soluble
MAKRYVGSCTTVLVGKKASIDGSTIIARNEDGESPLHPQKFVYVKPEDQPRHYQSVLSKFAIDLPADPLGYTATPEAEDGHGIWAAAGINSENIAMTSTETITTNSRVLGVDPLVAAGIGEEDMPTIVLPYIHSARDGVQRLGSLLEQYGTYESNGIAFADKDEVWYFESIGGHHWAAIRIPDDAYVVAPNRFNITDFDFASDDTMSSADLRDLIETYHLNPDTEGYNLRHIFGSATIKDTRYNNPRTWYGQKYFNPEFNTTPIDQDLPFICRTSKKISIEDVKFVESSHYENTPYDVYGTTGTPAQKKLYRPIGINRNQELHILQIRNNVPAAVAGIHWLAFGPNTFNAVVPFYANVNDTPAAYRETGDKFDVTKMYWLSNLLATFGDYDFSLFKDQEDVFEQKTVAACRHLQLTTDEAVKDAKDIGDHLTAANEQMATIAMANSNELLGQMVAAAAPKMKLQFTLHDLEHHHHHH | not soluble
MLTIPEKENRGSKEQEVAIMIDALADKGKKALEALSKKSQEEIDHIVHQMSLAAVDQHMVLAKLAHEETGRGIYEDKAIKNLYASEYIWNSIKDNKTVGIIGEDKEKGLTYVAEPIGVICGVTPTTNPTSTTIFKAMIAIKTGNPIIFAFHPSAQESSKRAAEVVLEAAMKAGAPKDIIQWIEVPSIEATKQLMNHKGIALVLATGGSGMVKSAYSTGKPALGVGPGNVPSYIEKTAHIKRAVNDIIGSKTFDNGMICASEQVVVIDKEIYKDVTNEFKAHQAYFVKKDELQRLENAIMNEQKTGIKPDIVGKSAVEIAELAGIPVPENTKLIIAEISGVGSDYPLSREKLSPVLALVKAQSTKQAFQICEDTLHFGGLGHTAVIHTEDETLQKDFGLRMKACRVLVNTPSAVGGIGDMYNELIPSLTLGCGSYGRNSISHNVSATDLLNIKTIAKRRNNTQIFKVPAQIYFEENAIMSLTTMDKIEKVMIVCDPGMVEFGYTKTVENVLRQKTEQPQIKIFSEVEPNPSTNTVYKGLEMMVDFQPDTIIALGGGSAMDAAKAMWMFFEHPETSFFGAKQKFLDIGKRTYKIGMPENATFICIPTTSGTGSEVTPFAVITDSETNVKYPLADFALTPDVAIIDPQFVMSVPKSVTADTGMDVLTHAMESYVSVMASDYTRGLSLQAIKLTFEYLKSSVEKGDKVSREKMHNASTLAGMAFANAFLGIAHSIAHKIGGEYGIPHGRANAILLPHIIRYNAKDPQKHALFPKYEFFRADTDYADIAKFLGLKGNTTEALVESLAKAVYELGQSVGIEMNLKSQGVSEEELNESIDRMAELAFEDQCTTANPKEALISEIKDIIQTSYDYKQ | not soluble
MSRRRKANPTKLSENAKKLAKEVENSQEENDCDMLAKPQTPTIIIPGHMDDTPNPAGSPHDASIKSSSSTISDHTSTSATTGISDFPDILAQTEHGCSVLIDGNHLREIINSVDTQDGKQDLLSDVIRQLTSIKERLTNDESPVKDDLKEDPDDMSPMLHAGNFDSEMLLRQHELMQHQQQQMIIANMLKATQSLPLLFNGGLNYEAILNNPVLNATIAGHLPNPLASNISLLQKSISAKLAAAGNMQTVEKVETPLNLSKDTPSPTAIPQSPLSGFRLPYSLGTNYGSDGQLFNNCSPNSSGKSTPGNTSVTSEVATPRPQAKSPNHIKRPMNAFMVWARDERRKILKAYPDMHNSNISKILGSRWKGMSNSEKQPYYEEQSRLSKLHMEQHPDYRYRPRPKRTCVIDGKKVRVNEYKTIMKTKKDLMWGDEPGFSQPSDLQMDLASHVNLLNDLTQHHHQSHLLQTAE | not soluble
MIETPYYLIDKAKLTRNMERIAHVREKSGAKALLALKCFATWSVFDLMRDYMDGTTSSSLFEVRLGRERFGKETHAYSVAYGDNEIDEVVSHADKIIFNSISQLERFADKAAGIARGLRLNPQVSSSSFDLADPARPFSRLGEWDVPKVERVMDRINGFMIHNNCENKDFGLFDRMLGEIEERFGALIARVDWVSLGGGIHFTGDDYPVDAFSARLRAFSDRYGVQIYLEPGEASITKSTTLEVTVLDTLYNGKNLAIVDSSIEAHMLDLLIYRETAKVLPNEGSHSYMICGKSCLAGDVFGEFRFAEELKVGDRISFQDAAGYTMVKKNWFNGVKMPAIAIRELDGSVRTVREFTYADYEQSLS | soluble

Reference: the DeepSol protein solubility set
